Tested on: Escherichia coli TOP10
Test: shrunken log2 fold change of peptide-encoding DNA abundance (4.5 h post-induction vs induction); higher = less antimicrobial activity (less host growth inhibition)
Settings: time post-induction: 4.5 h; library: site-saturation at positions 5, 18, 19, 20
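Note: peptides expressed intracellularly from a pBAD plasmid library in pooled LB shake-flask culture, induced with 0.3% L-arabinose, DNA abundance read by NGS, three biological replicates, DESeq2 with apeglm shrinkage.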

Row | Sequence | shrunken log2 fold change
1 | RRIRDRPPRLPRPRPRPHWCPRP | -0.116
2 | RRIRDRPPRLPRPRPRPHYEPRP | -0.0202
3 | RRIRDRPPRLPRPRPRPIARPRP | 0.199
4 | RRIRDRPPRLPRPRPRPIDLPRP | -0.0817
5 | RRIRDRPPRLPRPRPRPIDNPRP | 0.131
6 | RRIRDRPPRLPRPRPRPIFLPRP | -0.205
7 | RRIRDRPPRLPRPRPRPIFPPRP | 0.19
8 | RRIRDRPPRLPRPRPRPIGMPRP | 0.0484
9 | RRIRDRPPRLPRPRPRPIHPPRP | -0.125
10 | RRIRDRPPRLPRPRPRPIHWPRP | -0.18
11 | RRIRDRPPRLPRPRPRPIKKPRP | 0.0559
12 | RRIRDRPPRLPRPRPRPIKRPRP | 0.000716
13 | RRIRDRPPRLPRPRPRPIKWPRP | -0.147
14 | RRIRDRPPRLPRPRPRPILMPRP | 0.303
15 | RRIRDRPPRLPRPRPRPILNPRP | -0.184
16 | RRIRDRPPRLPRPRPRPINKPRP | -0.287
17 | RRIRDRPPRLPRPRPRPIPAPRP | 0.0318
18 | RRIRDRPPRLPRPRPRPIPHPRP | -0.051
19 | RRIRDRPPRLPRPRPRPIQAPRP | 0.119
20 | RRIRDRPPRLPRPRPRPIREPRP | -0.00227
21 | RRIRDRPPRLPRPRPRPIRWPRP | 0.13
22 | RRIRDRPPRLPRPRPRPITFPRP | -0.822
23 | RRIRDRPPRLPRPRPRPITSPRP | -0.00293
24 | RRIRDRPPRLPRPRPRPIVDPRP | -0.000946
25 | RRIRDRPPRLPRPRPRPIVRPRP | -0.00112
26 | RRIRDRPPRLPRPRPRPIVVPRP | 0.218
27 | RRIRDRPPRLPRPRPRPIVWPRP | -0.0132
28 | RRIRDRPPRLPRPRPRPIYEPRP | 0.0032

Row | Sequence | shrunken log2 fold change
29 | RRIRDRPPRLPRPRPRPKADPRP | -0.0266
30 | RRIRDRPPRLPRPRPRPKCHPRP | 0.028
31 | RRIRDRPPRLPRPRPRPKCSPRP | 0.243
32 | RRIRDRPPRLPRPRPRPKFRPRP | 0.152
33 | RRIRDRPPRLPRPRPRPKHQPRP | 0.0157
34 | RRIRDRPPRLPRPRPRPKICPRP | 0.0258
35 | RRIRDRPPRLPRPRPRPKISPRP | -0.203
36 | RRIRDRPPRLPRPRPRPKLGPRP | -0.000429
37 | RRIRDRPPRLPRPRPRPKLPPRP | 0.0818
38 | RRIRDRPPRLPRPRPRPKPAPRP | 0.278
39 | RRIRDRPPRLPRPRPRPKQHPRP | 0.0788
40 | RRIRDRPPRLPRPRPRPKQLPRP | 0.217
41 | RRIRDRPPRLPRPRPRPKQWPRP | 0.109
42 | RRIRDRPPRLPRPRPRPKQYPRP | -0.839
43 | RRIRDRPPRLPRPRPRPKRDPRP | 0.145
44 | RRIRDRPPRLPRPRPRPKSGPRP | 0.0754
45 | RRIRDRPPRLPRPRPRPKSSPRP | 0.0319
46 | RRIRDRPPRLPRPRPRPKTQPRP | -0.0316
47 | RRIRDRPPRLPRPRPRPKTYPRP | -0.227
48 | RRIRDRPPRLPRPRPRPKVDPRP | -0.118
49 | RRIRDRPPRLPRPRPRPKVTPRP | -0.0277
50 | RRIRDRPPRLPRPRPRPKVWPRP | 0.437
51 | RRIRDRPPRLPRPRPRPKWHPRP | 0.179
52 | RRIRDRPPRLPRPRPRPKWSPRP | -0.0182
53 | RRIRDRPPRLPRPRPRPLAMPRP | 0.767
54 | RRIRDRPPRLPRPRPRPLAQPRP | 0.83
55 | RRIRDRPPRLPRPRPRPLCEPRP | 0.715

Source: the supplement of paper PMC9112550, “Optimization of the antimicrobial peptide Bac7 by deep mutational scanning” (BMC Biology, 2022)
